1 molecule from article doi:10.1101/2020.01.08.898304 (bioRxiv, 2020) can be followed below.

Changes are numbered by the printed parent chain.

Experiment [1] has as its target T1, Jacob (recombinant protein used for ITC) (UniProt Q9EPI6 1-532).
T1 sequence (looked up): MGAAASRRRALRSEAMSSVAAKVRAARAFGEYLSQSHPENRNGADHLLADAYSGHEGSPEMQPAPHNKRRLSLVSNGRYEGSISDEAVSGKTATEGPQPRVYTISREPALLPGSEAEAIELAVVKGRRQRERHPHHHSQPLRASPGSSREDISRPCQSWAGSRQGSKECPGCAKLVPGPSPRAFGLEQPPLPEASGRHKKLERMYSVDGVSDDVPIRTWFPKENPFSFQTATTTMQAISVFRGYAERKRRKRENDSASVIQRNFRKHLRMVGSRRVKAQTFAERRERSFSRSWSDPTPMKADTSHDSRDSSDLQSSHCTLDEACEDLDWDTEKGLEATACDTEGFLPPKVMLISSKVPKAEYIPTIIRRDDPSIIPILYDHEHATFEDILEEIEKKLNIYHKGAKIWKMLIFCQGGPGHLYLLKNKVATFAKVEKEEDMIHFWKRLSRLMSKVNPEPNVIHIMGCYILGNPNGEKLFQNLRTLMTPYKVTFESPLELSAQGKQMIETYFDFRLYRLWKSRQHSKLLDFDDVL
The experiment in a line: ITC.

Another experiment addresses T2, MBP-Jacob-45-228-180A (UniProt Q9EPI6 45-228, S180A).
T2 sequence (looked up): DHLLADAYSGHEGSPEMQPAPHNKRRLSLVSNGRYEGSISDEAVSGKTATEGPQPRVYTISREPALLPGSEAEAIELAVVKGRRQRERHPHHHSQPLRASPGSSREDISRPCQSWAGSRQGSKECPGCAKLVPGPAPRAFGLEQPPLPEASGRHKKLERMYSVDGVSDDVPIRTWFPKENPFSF
The experiment in a line: pull-down.

In the next experiment the target is T3, MBP-Jacob-45-228 (UniProt Q9EPI6 45-228).
T3 sequence (looked up): T2 sequence (looked up) with A136S
The experiment in a line: pull-down.

B1: GST-LMO4 (natural protein, UniProt P61968 1-165, looked up)
chain: MVNPGSSSQPPPVTAGSLSWKRCAGCGGKIADRFLLYAMDSYWHSRCLKCSCCQAQLGDIGTSCYTKSGMILCRNDYIRLFGNSGACSACGQSIPASELVMRAQGNVYHLKCFTCSTCRNRLVPGDRFHYINGSLFCEHDRPTALINGHLNSLQSNPLLPDQKVC
For orientation: Kd means a measure of binding affinity in units of concentration. Regarding B1, the dissociation constant Kd in experiment [1] was found to be 370 nM. Also, the binding result in the experiment with MBP-Jacob-45-228-180A and with MBP-Jacob-45-228 was “binds” throughout.
